Experiment [1] deals with human lymphotoxin (TNFβ) (human) (UniProt P01374). Nature of the experiment: cell-based or functional assay.
Experiment [2] concerns the target human tumor necrosis factor-α (TNFα) (human) (UniProt P01375). Nature of the experiment: cell-based or functional assay.

human lymphotoxin (TNFβ) (human), sequence (P01374 35-205 limits assumed): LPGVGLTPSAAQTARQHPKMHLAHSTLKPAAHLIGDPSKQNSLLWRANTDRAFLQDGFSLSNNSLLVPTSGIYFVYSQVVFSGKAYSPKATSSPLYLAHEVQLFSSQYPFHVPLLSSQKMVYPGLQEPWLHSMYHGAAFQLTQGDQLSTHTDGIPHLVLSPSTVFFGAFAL
human tumor necrosis factor-α (TNFα) (human), sequence (P01375 77-233): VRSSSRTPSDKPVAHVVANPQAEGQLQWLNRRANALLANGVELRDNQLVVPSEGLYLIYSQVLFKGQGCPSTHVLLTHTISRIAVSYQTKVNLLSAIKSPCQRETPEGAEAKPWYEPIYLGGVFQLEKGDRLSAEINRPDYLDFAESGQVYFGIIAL

Consider “p55-sf2 TNF receptor/IgG1 fusion protein (from UniProt P19438) (Fc fusion)”, for which the amount needed for the same degree of inhibition of TNFβ cytotoxicity, against p75P-sf2 (fold against p75P-sf2) in experiment [1] turned out to be 3.

Molecule “p75P-sf2 TNF receptor/IgG1 fusion protein (from UniProt P20333 23-204) (Fc fusion)” yielded a concentration to half-inhibit human TNFβ at 2 pM, WEHI 164 cytotoxicity assay in experiment [1] of 31 pM. Regarding “p75-sf2 TNF receptor/IgG1 fusion protein (from UniProt P20333 23-257) (Fc fusion)”, the amount needed for the same degree of inhibition of TNFβ cytotoxicity, against p75P-sf2 (fold against p75P-sf2) in experiment [1] amounted to 3.

B1: chimeric mouse/human IgG1 anti-platelet mAb (7E3) (antibody, INN chains, looked up, V domains shown)
VH: EVQLQQSGTVLARPGASVKMSCEASGYTFTNYWMHWVKQRPGQGLEWIGAIYPGNSDTSYIQKFKGKAKLTAVTSTTSVYMELSSLTNEDSAVYYCTLYDGYYVFAYWGQGTLVTVSA
VL: EIVLTQSPVTLSVTPGDSVSLSCRASRDISNNLHWFQQTSHESPRLLIKYASQSMSGIPSRFSGSGSGTDFTLSINSVETEDFGMYFCQQTNSWPYTFGGGTKLEIK
modifications: chimeric IgG1
In experiment [2], B1 showed an IL-6 in supernatant of FS-4 fibroblasts (ng/ml), rhTNF 0.3 ng/ml with 4 µg/ml antibody (no antibody: 1.36) of 1.6 ng/mL; an IL-6 in supernatant of FS-4 fibroblasts (ng/ml), rhTNF 1.5 ng/ml with 4 µg/ml antibody (no antibody: 2.00) of 1.96 ng/mL; an IL-6 in supernatant of FS-4 fibroblasts (ng/ml), rhTNF 7.5 ng/ml with 4 µg/ml antibody (no antibody: 2.56) of 2.16 ng/mL.
